Target: T1, BtubA/B heterodimer (bacterial tubulin) from Prosthecobacter dejongeii (Prosthecobacter dejongeii, UniProt Q8GCC5 1-473; Q8GCC1 1-426)
T1 construct: The same preparation stood as soluble (non-polymerized) heterodimer or, in polymerization buffer with GTP, as filaments; the assay tells which; Construct was a gift from JM; Andreu; also called Btubs; Btub filaments; source: E. coli C41 (DE3), co-expressed from a bicistronic construct, purified (polymerization/depolymerization cycle, SEC)
T1 sequence (looked up) 1: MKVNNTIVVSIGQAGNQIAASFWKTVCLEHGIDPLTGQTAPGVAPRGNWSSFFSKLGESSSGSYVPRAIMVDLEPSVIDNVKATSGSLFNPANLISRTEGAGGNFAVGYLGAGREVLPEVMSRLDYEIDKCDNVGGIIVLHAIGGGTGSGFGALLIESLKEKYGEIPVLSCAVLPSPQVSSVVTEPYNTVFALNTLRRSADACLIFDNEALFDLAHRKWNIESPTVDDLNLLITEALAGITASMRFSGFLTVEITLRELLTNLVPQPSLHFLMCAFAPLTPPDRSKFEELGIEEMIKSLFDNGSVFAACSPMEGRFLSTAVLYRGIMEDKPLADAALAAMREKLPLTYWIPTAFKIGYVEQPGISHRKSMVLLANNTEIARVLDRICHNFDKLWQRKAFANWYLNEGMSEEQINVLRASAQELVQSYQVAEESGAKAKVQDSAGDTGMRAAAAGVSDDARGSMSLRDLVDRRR
T1 sequence (looked up) 2: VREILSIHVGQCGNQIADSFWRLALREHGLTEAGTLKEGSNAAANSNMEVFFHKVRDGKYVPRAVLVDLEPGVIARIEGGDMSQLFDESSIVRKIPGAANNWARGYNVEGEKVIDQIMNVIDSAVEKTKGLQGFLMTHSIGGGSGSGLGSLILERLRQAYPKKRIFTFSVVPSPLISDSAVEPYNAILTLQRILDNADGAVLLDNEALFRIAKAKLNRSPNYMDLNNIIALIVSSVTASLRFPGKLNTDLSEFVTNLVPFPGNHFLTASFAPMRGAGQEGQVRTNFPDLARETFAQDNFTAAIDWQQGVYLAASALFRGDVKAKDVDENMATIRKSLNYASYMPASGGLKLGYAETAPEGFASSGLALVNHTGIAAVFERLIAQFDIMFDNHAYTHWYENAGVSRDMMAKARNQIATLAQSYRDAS
Experiment: co-sedimentation; 10 μM BtubA/B with 10 or 20 μM Bklc in polymerization buffer (20 mM TrisHCl pH 7.5, 300 mM potassium glutamate, 5 mM MgCl2, 1 mM EGTA, 2 mM GTP), 10 min 25 °C, 100.000 x g 30 min; pellet depolymerized at 4 °C (S2); densitometry of Coomassie gels
Conditions: both partners purified

stoichiometry N: ~1 Bklc monomer per BtubA/B heterodimer
B1: Bacterial kinesin light chain (Bklc) from Prosthecobacter vanneervenii, C-terminal poly-histidine tag (natural protein, UniProt A8Y5U5 1-256, looked up)
chain: MDTALERQIASASRSVEEARRLAYHDPIRVGALVEQISVLADLRQKEGDFRKAESLYREALFRAQELRKQDPDLLTGIYSLLAHLYDRWGRMDKAAEFYELALKISAENGLEESDKVATIKNNLAMIFKQLRKFERAEGYYCEALETFQRLDGEQSARVASVYNNLGVLYYSHMDVDRAQVMHERALAIRQNLHEGQMDPADLSQTFINLGAVYKAAGDFQKAEACVDRAKRIRAAMNGYHPNPRRSASLLIDKSL
notes: Bklc (bacterial kinesin light chain), Prosthecobacter vanneervenii; Uniprot id A8Y5U5_9BACT; GenBank CAP16140.1; the bklc gene was expressed from pHis17; Construct was a gift from M. Pilhofer; Monomer by SEC and AUC; also called Bklc-His; source: E. coli C41 (DE3), purified (Ni-NTA, SEC); not shown: His-tag, C-terminal, kept

— article PMC5372463, “Bacterial kinesin light chain (Bklc) links the Btub cytoskeleton to membranes” (Scientific Reports, 2017)
